The record followed here is patent US11819552B2, “Antibody-drug conjugates targeting uPARAP” (RIGSHOSPITALET, priority 2016, dated 2023).

Series [1] concerns the target T1, soluble truncated uPARAP protein containing the first 3 N-terminal domains of human uPARAP (Homo sapiens, UniProt Q9UBG0).
T1 construct: a soluble truncated uPARAP protein containing the first 3 N-terminal domains of human uPARAP
T1 sequence (Q9UBG0 31-365): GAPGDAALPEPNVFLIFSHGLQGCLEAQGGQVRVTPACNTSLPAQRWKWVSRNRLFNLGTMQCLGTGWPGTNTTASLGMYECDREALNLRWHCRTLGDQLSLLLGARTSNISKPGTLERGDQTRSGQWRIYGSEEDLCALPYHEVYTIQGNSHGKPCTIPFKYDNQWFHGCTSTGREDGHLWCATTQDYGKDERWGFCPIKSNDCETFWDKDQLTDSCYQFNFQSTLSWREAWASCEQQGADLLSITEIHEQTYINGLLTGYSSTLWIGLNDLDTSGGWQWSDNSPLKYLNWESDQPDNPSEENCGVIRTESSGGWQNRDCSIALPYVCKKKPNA
Kind of series: ELISA analysis of uPARAP-binding of mAbs. To be noted: after reduction step of conjugation, or in ADC form. How it is done: Untreated mAbs (2h9 or aTNP), same mAbs subjected to the reduction procedure of conjugation (see above), or ADCs 2h9-vc-MMAE or aTNP-vc-MMAE, were then employed as a primary antibody, followed by a HRP-conjugated rabbit anti-mouse Ig secondary antibody. Finally an o-phenylenediamine dihydrochloride-containing substrate solution was added, and the color reaction was stopped by adding 1M H2SO4. Plates were read at 492 nm using a plate reader.

The target of series [2] is T2, recombinant human (rh) Cathepsin B (Homo sapiens, UniProt P07858).
T2 construct: purchased
Kind of series: Cathepsin B linker cleavage assay (reducing SDS-PAGE). It counts as biochemical. The note with it: incubation with activated rh cathepsin B, 37° C. overnight. The method, then:
Reducing SDS-PAGE was performed by running a 4-12% NuPAGE Bis-Tris SDS-PAGE gel, loading 5 μg of total protein per lane, reduced by boiling for 3 minutes in sample buffer in the presence of 40 mM DTT. The gels were stained using a standard 0.1% coomassie blue stain. For cathepsin B linker cleavage assay, samples were treated with recombinant human (rh) Cathepsin B according to manufacturer's instructions, using 100 ng of activated rhCathepsin B to 20 μg ADC (mAb component), in a 25 mM MES, pH 5.0 buffer, and incubation at 37° C. overnight.

Series [3] relates to CHO-K1 (receptor-negative cell line). Kind of series: In vitro cytotoxicity of ADCs, cell viability assay (MTS). It counts as cell-based. To be noted: 72 hours, 4-fold dilutions from 10 μg/mL ADC. How it is done: (§1) Cells tested were seeded at low density (20-25% confluence, generally 5-10×10^3 cells per well) in a 96 well plate in 90 μL of medium, and incubated overnight. […] Cells were incubated for 72 hours, before 20 μL of CellTiter 96 AQueous One Solution Cell Proliferation Assay (MTS, Promega) was added, and incubated for an appropriate time for formation of color (usually 1 hour). The plates were then read at 490 nm, with background subtraction at 630 nm, using a plate reader.

The test system of series [4] is HT1080 cells. Described as above. The note with it: 72 hours, 4-fold dilutions from 10 μg/mL ADC, vs aTNP-vc-MMAE. It counts as cell-based. How it is done: as §1
For series [5], the system named is KNS42 cells. The description is as above. It counts as cell-based. To be noted: 72 hours, 4-fold dilutions from 10 μg/mL ADC, vs aTNP-vc-MMAE. How it is done: as §1
Series [6] concerns THP-1 cells. The description is as above. The series is classed as cell-based. The note with it: 72 hours, 4-fold dilutions from 10 μg/mL ADC, vs aTNP-vc-MMAE. The method, then: as §1
The subject of series [7] is U937 cells. The description is as above. It counts as cell-based. To be noted: 72 hours, 4-fold dilutions from 10 μg/mL ADC (mAb component), vs aTNP-vc-MMAE. How it is done: as §1
In series [8] the test system is HT1080 cells. Kind of series: Cell cycle distribution analysis. The series is classed as cell-based. The note with it: 3-day incubation, 1 μg/mL ADC. How it is done:
(§2) Cell cycle analysis was performed using a Nucleocounter NC-3000 system (ChemoMetec Denmark), using the manufacturers standard protocol for analyzing the cell cycle distribution of a population of cells, based on the DNA content of each cell. The percentage of cells in Sub-G1, G1, S, or G2/M-phases of the cell cycle was established from histogram analysis using the NucleoView NC-3000 software.

The subject of series [9] is KNS42 cells. Kind of series: Cell cycle distribution analysis. The series is classed as cell-based. To be noted: 3-day incubation, 1 μg/mL ADC. How it is done: as §2
Series [10] has as its system THP-1 cells. Kind of series: Cell cycle distribution analysis. It counts as cell-based. The note with it: 3-day incubation, 1 μg/mL ADC. The method, then: as §2
The subject of series [11] is U937 cells. In words: Cell cycle distribution analysis. The series is classed as cell-based. The note with it: 3-day incubation, 1 μg/mL ADC. How it is done:
as §2

The test system of series [12] is U937 xenograft tumour. Kind of series: Subcutaneous uPARAP-positive U937 xenograft tumour model, treatment by s.c. injection. The series is classed as in vivo, CB17 SCID mice. How it is done:
(§3) All animal experiments were performed under legal approval from The Danish Veterinary and Food Administration. All reagents and cell lines used for animal experiments were tested negative for the presence of murine viruses, bacteria, mycoplasma and fungi. Animals received standard of care, and were sacrificed upon any of the following signs: loss of more than 10% of body weight, visible distress or illness, compromised food—or water intake or defecation, signs of severe inflammation in the vicinity of tumours, or tumour growth which exceeded a volume of 1000 mm^3 or compromised the free movement of the animals. Tumour growth was measured using electronic calipers, and tumour volumes were calculated using the formula Volume=(LxW^2)/2, with L being the longest dimension of the tumour, and W being the width in the perpendicular dimension.
For tumour establishment, mice were shaved at the flank, and received a subcutaneous injection of 1×10^6 U937 cells, and then closely monitored in order to observe the development of solid tumours. […] All treatments were given as a total of 4 subcutaneous doses of 3 mg/kg mAb component in the tumour area, at 4 days intervals. Injections were performed under brief isoflurane anesthesia to avoid risks for the animal handler. During treatment, the tumours were evaluated every two days, until reaching a point of sacrifice. Mice which fully lost any tumour burden were checked two times a week for a period of 3 months after ending treatment.

Series [13] deals with U937 xenograft tumour. Kind of series: Subcutaneous uPARAP-positive U937 xenograft tumour model, treatment by intravenous injection. It counts as in vivo, CB17 SCID mice. The method, then: as §3
For tumour establishment, mice were shaved at the flank, and received a subcutaneous injection of 1×10^6 U937 cells, and then closely monitored in order to observe the development of solid tumours. […] All treatments were given as a total of 3 intravenous doses of 5 mg/kg mAb component in the tail veins of the mice, at 4 days intervals. During treatment, the tumours were evaluated every two days, until reaching a point of sacrifice. Mice which fully lost any tumour burden were checked two times a week for a period of 3 months after ending treatment.

The subject of series [14] is human glioblastoma explant cells. Kind of series: In vitro cell viability assay on glioblastoma explant cells. To be noted: as FIG. 5 assay; vs aTNP-based control ADCs. The method, then: as §1
The ADCs 2h9-vc-MMAE and 2h9-vc-MMAF were tested by in vitro cell viability assays, performed as described in Example 1, for their capacity to specifically kill human glioblastoma explant cells. Glioblastoma explant cells are e.g. described in Staberg et al., 2017, Cell Oncol. 40: 21-32.

Where [15] appears, read: s.c., 3 mg/kg, 4 doses, of the 10 mice treated.

“Also recorded” adds a separate entry of the source.

B1: 2h9-vc-MMAE: uPARAP-directed ADC: mAb 2h9 conjugated to MC-VC-PAB-MMAE (Vedotin) linker-toxin (conjugate)
light: DIQMTQSPASQSASLGESVTITCLASQTIGTWLAWYQQKPGKSPQLLIYAATTLTDGVPSRFSGAGSGTKFSLKISSLQAEDFASYFCQEFFSTPFTFGSGTKLELKRADAAPTVSIFPPSSEQLTSGGASVVCFLNNFYPKDINVKWKIDGGERQNGVLNSWTDQDSKDSTYSMSSTLTLTKDEYERHNSYTCEATHKTSTSPIVKSFNRNEC
heavy: QVQLQQPGTELVRPGLSVKLSCKASGYTFTSYWMNWVKQRPGQGLEWIGMIHPSNDEKRINQKFKDKATLTVDKFSSTVYMQVSSPTSEDSAVYYCARGGGDYVGDYALDFWGQGTSVTVSSAKTTPPSVYPLAPGSAAQTNSMVTLGCLVKGYFPEPVTVTWNSGSLSSGVHTFPAVLQSDLYTLSSSVTVPSSTWPSETVTCNVAHPASSTKVDKKIVPRDCGCKPCICTVPEVSSVFIFPPKPKDVLTITLTPKVTCVVVDISKDDPEVQFSWFVDDVEVHTAQTQPREEQFNSTFRSVSELPIMHQDWLNGKEFKCRVNSAAFPAPIEKTISKTKGRPKAPQVYTIPPPKEQMAKDKVSLTCMITDFFPEDITVEWQWNGQPAENYKNTQPIMDTDGSYFIYSKLNVQKSNWEAGNTFTCSVLHEGLHNHHTEKSLSHSPGK
For the molecule B1, in [1], the “Affinity towards uPARAP following conjugation procedure” value is “retained affinity”. Besides, the “Linker cleavage by cathepsin B (gel mobility)” value in [2] is on record as “reverts ADC gel mobility back to that of unmodified targeting antibody”. The Overall cell viability result in series [3] is “remains unaffected”; with HT1080 cells [4], “specific reduction in overall viability”; with KNS42 cells [5], “specific reduction in overall viability”; with THP-1 cells [6], “specific reduction in overall viability”; in the series on U937 cells [7], “most sensitive cell line tested; also recorded: specific reduction in overall cell viability”. Also, the Cell cycle distribution entry is “shift in cell cycle distribution towards the Sub-G1 and G2/M phases” with HT1080 cells [8]; “shift in cell cycle distribution towards the Sub-G1 and G2/M phases” with KNS42 cells [9]; “shift in cell cycle distribution towards the Sub-G1 and G2/M phases” with THP-1 cells [10]; “shift in cell cycle distribution towards the Sub-G1 and G2/M phases” in the series with U937 cells [11]. For the same molecule, the Tumour growth result in the series on U937 xenograft tumour [12] (s.c. near the tumour, 3 mg/kg mAb component, 4 doses every 4 days) is “drastic decrease in tumour growth”. The Permanent cure rate in the series on U937 xenograft tumour [12] (s.c., 3 mg/kg mAb component, 4 doses every 4 days, N=10) worked out at 50%; with U937 xenograft tumour [13] (i.v., 5 mg/kg mAb component, 3 doses every 4 days, N=10), 100%. Also, the “Mice free from tumour growth for a period of 90 days” value in the series with U937 xenograft tumour [12] (setting [15]) turned out to be 5 mice. Moreover, the “Mice with almost immediate relapse of tumour growth following treatment” value in the series on U937 xenograft tumour [12] (setting [15]) is given as 5 mice. Moreover, the Tumour burden entry with U937 xenograft tumour [13] (i.v. tail vein, 5 mg/kg mAb component, 3 doses every 4 days, all 10 mice) is on record as “complete abrogation of the tumour burden”. The “Adverse / detrimental effects on treated mice” value in the series on U937 xenograft tumour [13] (regular inspection of the treated mice, antibody cross-reactive with murine uPARAP) is reported as “without any evident adverse effects; also recorded: no signs of detrimental effects were seen”. Besides, the “Cell viability / sensitivity of glioblastoma explant cells” value in [14] was “very strong and specific sensitivity; also recorded: high degree of specific sensitivity”.
